T1: fibrinogen (UniProt P02671 20-629; P02675 31-491; P02679 27-437, limits assumed)
T1 construct: also called IgG-depleted fibrinogen
T1 sequence (looked up) 1: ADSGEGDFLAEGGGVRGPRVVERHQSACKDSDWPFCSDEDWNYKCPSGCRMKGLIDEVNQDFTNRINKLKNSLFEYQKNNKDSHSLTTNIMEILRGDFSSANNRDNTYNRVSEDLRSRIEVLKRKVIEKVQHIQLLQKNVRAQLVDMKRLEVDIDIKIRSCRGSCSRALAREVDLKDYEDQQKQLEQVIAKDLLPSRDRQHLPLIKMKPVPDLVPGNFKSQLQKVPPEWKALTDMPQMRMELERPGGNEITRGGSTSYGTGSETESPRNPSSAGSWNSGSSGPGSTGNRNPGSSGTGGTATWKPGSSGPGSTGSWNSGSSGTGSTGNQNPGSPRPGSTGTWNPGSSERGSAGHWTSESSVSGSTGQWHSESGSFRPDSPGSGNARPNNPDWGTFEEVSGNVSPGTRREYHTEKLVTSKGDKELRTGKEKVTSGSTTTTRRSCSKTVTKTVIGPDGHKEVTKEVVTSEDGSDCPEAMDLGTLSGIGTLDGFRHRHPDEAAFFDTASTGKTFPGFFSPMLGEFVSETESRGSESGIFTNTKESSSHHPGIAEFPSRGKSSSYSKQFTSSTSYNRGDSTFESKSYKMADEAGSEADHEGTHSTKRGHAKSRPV
T1 sequence (looked up) 2: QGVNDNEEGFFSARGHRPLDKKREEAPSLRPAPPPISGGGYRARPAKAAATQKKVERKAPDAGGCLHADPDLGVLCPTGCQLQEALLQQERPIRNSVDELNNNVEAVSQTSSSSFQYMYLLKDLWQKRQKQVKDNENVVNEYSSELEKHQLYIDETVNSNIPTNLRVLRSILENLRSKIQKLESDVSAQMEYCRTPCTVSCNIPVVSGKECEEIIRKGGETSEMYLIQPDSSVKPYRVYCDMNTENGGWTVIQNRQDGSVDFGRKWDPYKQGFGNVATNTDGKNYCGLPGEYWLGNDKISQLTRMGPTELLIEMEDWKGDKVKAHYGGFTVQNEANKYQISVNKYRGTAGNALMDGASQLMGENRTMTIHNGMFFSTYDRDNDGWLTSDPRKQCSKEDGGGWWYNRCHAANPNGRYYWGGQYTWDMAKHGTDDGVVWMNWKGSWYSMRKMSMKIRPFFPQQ
T1 sequence (looked up) 3: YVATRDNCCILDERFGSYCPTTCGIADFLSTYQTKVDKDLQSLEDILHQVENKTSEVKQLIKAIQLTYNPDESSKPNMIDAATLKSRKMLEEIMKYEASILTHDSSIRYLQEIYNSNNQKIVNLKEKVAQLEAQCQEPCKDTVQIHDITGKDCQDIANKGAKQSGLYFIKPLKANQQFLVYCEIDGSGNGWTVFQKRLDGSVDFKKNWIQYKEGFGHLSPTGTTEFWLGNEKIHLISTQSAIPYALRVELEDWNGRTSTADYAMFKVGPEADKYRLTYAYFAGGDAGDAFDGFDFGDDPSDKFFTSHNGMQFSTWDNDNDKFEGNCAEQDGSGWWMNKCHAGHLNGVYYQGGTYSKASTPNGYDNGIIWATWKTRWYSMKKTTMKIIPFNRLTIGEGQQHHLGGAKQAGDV

T2: fibrin (UniProt P02671 36-629; P02675 45-491; P02679 27-437)
T2 construct: also called IgG-depleted fibrin; fibrin networks
T2 sequence (looked up) 1: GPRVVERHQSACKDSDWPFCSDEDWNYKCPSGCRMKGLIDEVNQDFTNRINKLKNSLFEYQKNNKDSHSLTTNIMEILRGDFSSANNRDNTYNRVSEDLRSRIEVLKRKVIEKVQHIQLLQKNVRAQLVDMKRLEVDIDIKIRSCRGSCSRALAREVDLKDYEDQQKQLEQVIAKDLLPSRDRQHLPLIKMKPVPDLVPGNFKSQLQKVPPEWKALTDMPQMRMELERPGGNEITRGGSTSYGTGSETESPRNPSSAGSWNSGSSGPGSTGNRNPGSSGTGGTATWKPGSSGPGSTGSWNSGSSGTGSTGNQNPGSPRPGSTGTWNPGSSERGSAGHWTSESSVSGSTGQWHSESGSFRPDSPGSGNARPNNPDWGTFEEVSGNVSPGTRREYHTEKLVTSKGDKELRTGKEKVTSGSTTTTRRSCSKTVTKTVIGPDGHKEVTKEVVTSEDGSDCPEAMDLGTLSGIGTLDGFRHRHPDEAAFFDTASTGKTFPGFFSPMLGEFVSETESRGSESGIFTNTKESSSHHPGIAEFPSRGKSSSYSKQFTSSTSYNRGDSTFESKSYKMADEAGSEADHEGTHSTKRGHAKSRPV
T2 sequence (looked up) 2: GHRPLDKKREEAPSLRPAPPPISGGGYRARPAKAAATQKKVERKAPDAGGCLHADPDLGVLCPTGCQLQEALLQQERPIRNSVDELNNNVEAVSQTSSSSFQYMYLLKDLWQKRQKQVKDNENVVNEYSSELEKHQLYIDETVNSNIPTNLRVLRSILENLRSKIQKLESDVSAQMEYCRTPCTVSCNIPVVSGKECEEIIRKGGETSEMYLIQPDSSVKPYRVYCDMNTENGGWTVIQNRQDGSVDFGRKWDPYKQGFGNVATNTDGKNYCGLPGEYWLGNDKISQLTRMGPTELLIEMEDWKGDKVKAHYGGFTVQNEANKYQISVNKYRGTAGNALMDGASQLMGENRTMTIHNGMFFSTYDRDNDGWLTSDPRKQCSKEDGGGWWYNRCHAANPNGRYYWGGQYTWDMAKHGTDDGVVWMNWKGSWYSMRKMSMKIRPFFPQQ
T2 sequence (looked up) 3: T1 sequence (looked up) 3

T3: P2 peptide (YSMKETTMKIIPFNRLTIG)
T3 peptide: YSMKETTMKIIPFNRLTIG

B1: Antibody G (45-C1C3) (antibody, V domains shown)
VH: EVQLVESGGGAVQPGRSLRLSCAASGVSFSNIGMHWVRQAPGKGLEWVALISSDGRHTHYADSVKGRFTISRDNSENTLYLQINGLRADDTAVYYCAKGLDTRARYMGKFYTFDYWGQGTLVTVSS
VL: DIQLTQSPSSLSASVGDRVTITCRASQNIGVNLNWYQQRPGKGPKLLVSSTFSLQSGVPSRFSASGAGTNFTLTISSLQPEDYVTYYCQQSYSSPFTFGPGTKVDIK
notes: also called mAb G; Ab G
B2: murine Antibody G (mu-AbG) (antibody, mouse IgG2a, kappa, V domains shown)
VH: B1 VH
VL: DIQLTQSPSSLSASVGDRVTITCRASQNIGVNLNWYQQRPGKGPKLLVSSTFSLQSGVPSRFSASGAGTNFTLTISSLQPEDYVTYYCQQSYSSPFTFGPGTKVDIKR
notes: Variable domains of Antibody G with mouse IgG2a heavy and mouse kappa light constant regions; also called murine mAb G

How the values were obtained:
fibrinogen = biological target: T1, fibrinogen; assay: solid phase ELISA, 25 µg/mL IgG-depleted fibrinogen coated, 12-point 3-fold dilution
Description: (§1) Solid phase ELISA was used to assess whether Antibody G binds to fibrinogen and fibrin separately. Antibody G was incubated for 2 hours at 37° C. on 25 μg/mL IgG-depleted fibrinogen or fibrin in 20 mM HEPES buffer, pH7.2, coated and dried overnight in high protein-binding ELISA plates.

fibrin = biological target: T2, fibrin; assay: solid phase ELISA, 25 µg/mL IgG-depleted fibrin coated, 12-point 3-fold dilution
Description: as §1
Solid phase ELISA was used to assess murine Antibody G binding to fibrin. Antibody G was incubated for 2 hours at 37° C. on 25 μg/mL IgG-depleted fibrin in 20 mM HEPES buffer, pH7.2, coated and dried overnight in high protein-binding ELISA plates.

[1] = biological target: FIBG 331-345 peptide (human) (UniProt P02679); assay: solid phase ELISA, 30 µM FIBG331-345 peptide coated
[2] = biological target: T3, P2 peptide (YSMKETTMKIIPFNRLTIG); assay: solid phase ELISA, 30 µM P2 peptide coated
Description: Based on the fibrinogen peptide profiling (FIG. 8), 15mers were selected to carry out individual peptide binding validation using solid phase ELISA. High purity 15mers were synthesized (Genemed) and then each were diluted at 30 μM in 20 mM HEPES buffer, coated in separate wells and dried overnight. Antibody G was incubated on peptide coated wells for 2 hours at 37° C., at a concentration of 25 or 50 μg/mL.

Binder | Kd (fibrinogen) | Kd (fibrin) | Kd [1] | Kd [2]
B1 | 660 nM | 160 nM | 360 nM | 11800 nM
B2 |  | 40 nM |  | 
